# B1: Caspase recruitment domain-containing protein 9 (Homo sapiens), Q9H257 (parent)
# chain: MSDYENDDECWSVLEGFRVTLTSVIDPSRITPYLRQCKVLNPDDEEQVLSDPNLVIRKRKVGVLLDILQRTGHKGYVAFLESLELYYPQLYKKVTGKEPARVFSMIIDASGESGLTQLLMTEVMKLQKKVQDLTALLSSKDDFIKELRVKDSLLRKHQERVQRLKEECEAGSRELKRCKEENYDLAMRLAHQSEEKGAALMRNRDLQLEIDQLKHSLMKAEDDCKVERKHTLKLRHAMEQRPSQELLWELQQEKALLQARVQELEASVQEGKLDRSSPYIQVLEEDWRQALRDHQEQANTIFSLRKDLRQGEARRLRCMEEKEMFELQCLALRKDSKMYKDRIEAILLQMEEVAIERDQAIATREELHAQHARGLQEKDALRKQVRELGEKADELQLQVFQCEAQLLAVEGRLRRQQLETLVLSSDLEDGSPRRSQELSLPQDLEDTQLSDKGCLAGGGSPKQPFAALHQEQVLRNPHDAGLSSGEPPEKERRRLKESFENYRRKRALRKMQKGWRQGEEDRENTTGSDNTDTEGS
# partner: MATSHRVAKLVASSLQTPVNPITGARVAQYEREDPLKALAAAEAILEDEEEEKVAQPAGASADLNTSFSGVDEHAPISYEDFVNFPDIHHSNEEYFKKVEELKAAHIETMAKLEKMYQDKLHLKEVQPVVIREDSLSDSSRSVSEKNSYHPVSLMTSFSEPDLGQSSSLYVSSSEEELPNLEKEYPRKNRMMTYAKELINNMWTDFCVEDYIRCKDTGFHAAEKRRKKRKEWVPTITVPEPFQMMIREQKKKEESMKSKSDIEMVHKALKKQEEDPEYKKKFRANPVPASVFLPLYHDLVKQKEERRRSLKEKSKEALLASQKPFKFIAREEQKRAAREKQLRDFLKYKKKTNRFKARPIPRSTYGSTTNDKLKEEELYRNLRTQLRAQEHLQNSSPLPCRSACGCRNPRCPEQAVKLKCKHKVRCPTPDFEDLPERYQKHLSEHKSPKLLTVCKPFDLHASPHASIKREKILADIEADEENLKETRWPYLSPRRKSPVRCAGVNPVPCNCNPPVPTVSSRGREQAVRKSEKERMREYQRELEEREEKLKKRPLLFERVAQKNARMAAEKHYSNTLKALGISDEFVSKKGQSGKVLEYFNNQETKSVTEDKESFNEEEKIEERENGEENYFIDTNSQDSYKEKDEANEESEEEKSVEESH
# B2: G1/S-specific cyclin-D3 (Homo sapiens), P30281 (parent)
# chain: MELLCCEGTRHAPRAGPDPRLLGDQRVLQSLLRLEERYVPRASYFQCVQREIKPHMRKMLAYWMLEVCEEQRCEEEVFPLAMNYLDRYLSCVPTRKAQLQLLGAVCMLLASKLRETTPLTIEKLCIYTDHAVSPRQLRDWEVLVLGKLKWDLAAVIAHDFLAFILHRLSLPRDRQALVKKHAQTFLALCATDYTFAMYPPSMIATGSIGAAVQGLGACSMSGDELTELLAGITGTEVDCLRACQEQIEAALRESLREASQTSSSPAPKAPRGSSSQGPSQTSTPTDVTAIHL
# partner: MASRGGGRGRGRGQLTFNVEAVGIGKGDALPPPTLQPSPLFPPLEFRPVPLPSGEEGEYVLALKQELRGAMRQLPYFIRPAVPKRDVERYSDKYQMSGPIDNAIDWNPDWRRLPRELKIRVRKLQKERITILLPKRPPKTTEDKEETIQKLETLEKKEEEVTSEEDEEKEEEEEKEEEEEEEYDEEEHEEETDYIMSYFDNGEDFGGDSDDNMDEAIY
# B3: Myogenin (Homo sapiens), P15173 (parent)
# chain: MELYETSPYFYQEPRFYDGENYLPVHLQGFEPPGYERTELTLSPEAPGPLEDKGLGTPEHCPGQCLPWACKVCKRKSVSVDRRRAATLREKRRLKKVNEAFEALKRSTLLNPNQRLPKVEILRSAIQYIERLQALLSSLNQEERDLRYRGGGGPQPGVPSECSSHSASCSPEWGSALEFSANPGDHLLTADPTDAHNLHSLTSIVDSITVEDVSVAFPDETMPN
# partner: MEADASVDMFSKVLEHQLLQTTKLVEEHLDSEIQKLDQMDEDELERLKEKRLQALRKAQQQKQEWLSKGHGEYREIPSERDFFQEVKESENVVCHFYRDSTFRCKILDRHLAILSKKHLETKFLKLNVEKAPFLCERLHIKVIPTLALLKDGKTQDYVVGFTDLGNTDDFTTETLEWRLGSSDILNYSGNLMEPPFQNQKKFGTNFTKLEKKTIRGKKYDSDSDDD
# B4: Tuftelin-interacting protein 11 (Homo sapiens), Q9UBB9 (parent)
# chain: MSLSHLYRDGEGRIDDDDDERENFEITDWDLQNEFNPNRQRHWQTKEEATYGVWAERDSDDERPSFGGKRARDYSAPVNFISAGLKKGAAEEAELEDSDDEEKPVKQDDFPKDFGPRKLKTGGNFKPSQKGFAGGTKSFMDFGSWERHTKGIGQKLLQKMGYVPGRGLGKNAQGIINPIEAKQRKGKGAVGAYGSERTTQSMQDFPVVDSEEEAEEEFQKELSQWRKDPSGSKKKPKYSYKTVEELKAKGRISKKLTAPQKELSQVKVIDMTGREQKVYYSYSQISHKHNVPDDGLPLQSQQLPQSGKEAKAPGFALPELEHNLQLLIDLTEQEIIQNDRQLQYERDMVVNLFHELEKMTEVLDHEERVISNLSKVLEMVEECERRMQPDCSNPLTLDECARIFETLQDKYYEEYRMSDRVDLAVAIVYPLMKEYFKEWDPLKDCTYGTEIISKWKSLLENDQLLSHGGQDLSADAFHRLIWEVWMPFVRNIVTQWQPRNCDPMVDFLDSWVHIIPVWILDNILDQLIFPKLQKEVENWNPLTDTVPIHSWIHPWLPLMQARLEPLYSPIRSKLSSALQKWHPSDSSAKLILQPWKDVFTPGSWEAFMVKNIVPKLGMCLGELVINPHQQHMDAFYWVIDWEGMISVSSLVGLLEKHFFPKWLQVLCSWLSNSPNYEEITKWYLGWKSMFSDQVLAHPSVKDKFNEALDIMNRAVSSNVGAYMQPGARENIAYLTHTERRKDFQYEAMQERREAENMAQRGIGVAASSVPMNFKDLIETKAEEHNIVFMPVIGKRHEGKQLYTFGRIVIYIDRGVVFVQGEKTWVPTSLQSLIDMAK
# partner: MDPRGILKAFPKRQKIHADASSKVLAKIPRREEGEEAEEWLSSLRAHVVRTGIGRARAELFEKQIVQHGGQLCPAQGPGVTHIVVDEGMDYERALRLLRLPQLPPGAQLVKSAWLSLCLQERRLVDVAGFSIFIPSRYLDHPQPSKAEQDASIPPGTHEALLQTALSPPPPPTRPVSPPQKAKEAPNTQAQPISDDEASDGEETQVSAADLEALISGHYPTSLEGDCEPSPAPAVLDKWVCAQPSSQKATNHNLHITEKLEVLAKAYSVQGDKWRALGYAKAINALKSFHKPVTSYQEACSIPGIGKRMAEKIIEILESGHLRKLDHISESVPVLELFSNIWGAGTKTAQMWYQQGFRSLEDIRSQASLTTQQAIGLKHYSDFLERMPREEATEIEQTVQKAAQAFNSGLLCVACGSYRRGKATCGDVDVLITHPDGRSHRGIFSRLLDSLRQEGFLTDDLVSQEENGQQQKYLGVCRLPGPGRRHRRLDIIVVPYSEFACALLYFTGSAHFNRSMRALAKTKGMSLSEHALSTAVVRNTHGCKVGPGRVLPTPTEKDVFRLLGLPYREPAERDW
# B5: Zinc finger and BTB domain-containing protein 43 (Homo sapiens), O43298 (parent)
# chain: MEPGTNSFRVEFPDFSSTILQKLNQQRQQGQLCDVSIVVQGHIFRAHKAVLAASSPYFCDQVLLKNSRRIVLPDVMNPRVFENILLSSYTGRLVMPAPEIVSYLTAASFLQMWHVVDKCTEVLEGNPTVLCQKLNHGSDHQSPSSSSYNGLVESFELGSGGHTDFPKAQELRDGENEEESTKDELSSQLTEHEYLPSNSSTEHDRLSTEMASQDGEEGASDSAEFHYTRPMYSKPSIMAHKRWIHVKPERLEQACEGMDVHATYDEHQVTESINTVQTEHTVQPSGVEEDFHIGEKKVEAEFDEQADESNYDEQVDFYGSSMEEFSGERSDGNLIGHRQEAALAAGYSENIEMVTGIKEEASHLGFSATDKLYPCQCGKSFTHKSQRDRHMSMHLGLRPYGCGVCGKKFKMKHHLVGHMKIHTGIKPYECNICAKRFMWRDSFHRHVTSCTKSYEAAKAEQNTTEAN
# partner: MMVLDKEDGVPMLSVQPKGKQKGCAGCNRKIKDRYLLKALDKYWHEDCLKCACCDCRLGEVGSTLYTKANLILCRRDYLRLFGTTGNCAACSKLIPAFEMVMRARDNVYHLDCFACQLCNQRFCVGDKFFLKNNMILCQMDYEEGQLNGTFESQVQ
# B6: Syntenin-2 (Homo sapiens), Q9H190 (parent)
# chain: MSSLYPSLEDLKVDQAIQAQVRASPKMPALPVQATAISPPPVLYPNLAELENYMGLSLSSQEVQESLLQIPEGDSTAVSGPGPGQMVAPVTGYSLGVRRAEIKPGVREIHLCKDERGKTGLRLRKVDQGLFVQLVQANTPASLVGLRFGDQLLQIDGRDCAGWSSHKAHQVVKKASGDKIVVVVRDRPFQRTVTMHKDSMGHVGFVIKKGKIVSLVKGSSAARNGLLTNHYVCEVDGQNVIGLKDKKIMEILATAGNVVTLTIIPSVIYEHMVKKLPPVLLHHTMDHSIPDA
# partner: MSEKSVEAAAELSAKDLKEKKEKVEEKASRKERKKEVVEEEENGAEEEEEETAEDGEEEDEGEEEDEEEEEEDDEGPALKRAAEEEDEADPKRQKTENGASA
# B7: Ubiquitin-conjugating enzyme E2 E3 (Homo sapiens), Q969T4 (parent)
# chain: MSSDRQRSDDESPSTSSGSSDADQRDPAAPEPEEQEERKPSATQQKKNTKLSSKTTAKLSTSAKRIQKELAEITLDPPPNCSAGPKGDNIYEWRSTILGPPGSVYEGGVFFLDITFSSDYPFKPPKVTFRTRIYHCNINSQGVICLDILKDNWSPALTISKVLLSICSLLTDCNPADPLVGSIATQYLTNRAEHDRIARQWTKRYAT
# partner: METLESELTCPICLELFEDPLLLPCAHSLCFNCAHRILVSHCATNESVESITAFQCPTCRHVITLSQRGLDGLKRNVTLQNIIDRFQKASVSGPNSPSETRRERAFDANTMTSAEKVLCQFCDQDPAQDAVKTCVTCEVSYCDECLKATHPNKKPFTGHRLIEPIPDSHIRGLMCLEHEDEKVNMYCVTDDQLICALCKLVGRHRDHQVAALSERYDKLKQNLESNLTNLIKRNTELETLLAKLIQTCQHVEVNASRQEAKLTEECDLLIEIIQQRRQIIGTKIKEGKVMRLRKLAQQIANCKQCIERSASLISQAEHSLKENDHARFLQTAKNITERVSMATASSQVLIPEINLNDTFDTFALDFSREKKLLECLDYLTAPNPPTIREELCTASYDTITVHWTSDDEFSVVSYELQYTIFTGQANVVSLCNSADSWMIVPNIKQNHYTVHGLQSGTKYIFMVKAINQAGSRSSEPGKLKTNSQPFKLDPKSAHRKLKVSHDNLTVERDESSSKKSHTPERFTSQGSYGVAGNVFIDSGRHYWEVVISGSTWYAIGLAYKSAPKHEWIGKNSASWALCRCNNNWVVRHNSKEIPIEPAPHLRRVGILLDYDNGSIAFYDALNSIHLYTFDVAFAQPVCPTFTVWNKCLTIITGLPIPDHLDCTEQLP
# B8: Cytohesin-4 (Homo sapiens), Q9UIA0 (parent)
# chain: MDLCHPEPAELSSGETEELQRIKWHRKQLLEDIQKLKDEIADVFAQIDCFESAEESRMAQKEKELCIGRKKFNMDPAKGIQYFIEHKLLTPDVQDIARFLYKGEGLNKTAIGTYLGERDPINLQVLQAFVDCHEFANLNLVQALRQFLWSFRLPGEAQKIDRMMEAFATRYCLCNPGVFQSTDTCYVLSFSIIMLNTSLHNPNVRDRPPFERFVSMNRGINNGSDLPEDQLRNLFDSIKSEPFSIPEDDGNDLTHTFFNPDREGWLLKLGGRVKTWKRRWFILTDNCLYYFEFTTDKEPRGIIPLENLSVQKVDDPKKPFCLELYNPSCRGQKIKACKTDGDGRVVEGKHESYRISATSAEERDQWIESIRASITRVPFYDLVSTRKKKIASKQ
# Variants of: B1
# Details: with FAM161A
row,Variant,effect of a mutation on the interaction
1,V385L,with no effect

# Variants of: B2
# Details: with rpc7l_human POLR3GL
row,Variant,effect of a mutation on the interaction
1,E253D,with no effect

# Variants of: B3
# Details: with txnd9_human TXNDC9, O14530
row,Variant,effect of a mutation on the interaction
1,P49H,with no effect
2,A181T,disrupting interaction strength

# Variants of: B4
# Details: with dpoll_human POLL
row,Variant,effect of a mutation on the interaction
1,R8Q,with no effect
2,S688L,with no effect

# Variants of: B5
# Details: with rbtn1_human LMO1, P25800
row,Variant,effect of a mutation on the interaction
1,L151V,disrupting interaction strength

# Variants of: B6
# Details: with ptms_human PTMS
row,Variant,effect of a mutation on the interaction
1,R223C,disrupting interaction strength

# Variants of: B7
# Details: with tri18_human MID1, O15344
row,Variant,effect of a mutation on the interaction
1,S117T,with no effect

# Variants of: B8
# Details: with fos_human FOS
row,Variant,effect of a mutation on the interaction
1,A9T,with no effect
2,M74V,with no effect

# Reference: IntAct's records for PubMed 31515488
